The DeepSol protein solubility set

Assay: soluble on expression in E. coli; label from the status in PepcDB or PDB records

Sequence | soluble on expression in E. coli
MYHHGFHYYSTNNSHSYSRTRNPPKSWNLGPHELGSSTDPENRAMQESIINSVSEQTLQSWIDFREEINKKNLLLRNKLKIPSEKIDDKYHTFPEKKQSDYADAEIYAGSDASQPSRNEYDRSKYVLNRKVRCAPTEIITDSSQSPGASPSSDQIFIDDSQPSTTKRRWVISEPDDNSDKHVSSSENHQQREKIISPTEKTLQKSTSSNSSPTLKLFVTVPSSSNQECILHKYGHCIAPQICPFAHDGVVRKLEKKTVTAPFWQRKLPNISLCPGYPTLKCWDHKCGKRHILYPSDNI | not soluble
MGSDKIHHHHHHMAPEDWLRAETQGDIVALVHSHPGGQPYLSDVDRRLQVQSDLPWWLVCAGQVHKFRCVPHLTGRHYKHGVFDCYTLFRDAYHLAGIDMPDFHRDDDWWRHGDNLYLDNLETTGFYRVSAASAQPGDVLICCFGSSVPNHAAIYCGDGELLHHIPEQLSKRERYTDKWQRRTHSIWRHRAWRASAFTGICNDFAAASACR | not soluble
PDGQDLAEARQRLDDSLEQAHQQHKALYERLMAYKTQPRMKTWLNELVWAHNQALWDAPTKVLAQGEPDPHLLLTTQLAPELLNTRKELMLISAYFVPGQEGLLYLTGRADAGVNVSLLTNSLEATDVPAVHGGYAPYRKALLEHGVKLYELRRQPGETETMRSSGPHLFRKSHSLVSSESSLHSKAMIFDRQKVFVGSFNFDPRSVLWNTEVGVLVDSPQLAEELRELTLQGMAPSLTYEARLEDGKVVWVTE | soluble
MAHHHHHHMAVLIKNNEASLVDMAVQDFIKLGIDGVYTTMKTVVSFEYIFNFTSHMRNLHKYSTNFLELQINGHNKECVTNILQNLTLENIRKSTSTSIKAGFEFINTLNDDIKKKYFSENLNYMVMVTITWDIHTDNRIPSNEPFSILCYIKCLPKHSNNVQIDIMCGERKTPNIKYSNVFDVRNKMLKLKSEDSHEVVLYNEKEEITEGLTCNFFCFFNDTLYTAKDELVLKGTMREQIIQICEEVGITLKRKVST | not soluble
MTGRTGGNGSTQAQPERVMLVGVMLDKDGTGSSAARLNGFQTALAEAVELVKAAGGDSVRVETAKRDRPHTALFVGTGKAAELSEAVAADGIDLVVFNHELTPTQERNLEKELKCRVLDRVGLILAIFARRARTQEGRLQVELAQLSHLAGRLIRGYGHLQSQRGGIGMKGPGETKLETDRRLIAHRINALKKQLANLKKQRALRRKSRESGTIKTFALVGYTNVGKSSLFNRLTKSGIYAKDQLFATLDTTARRLYISPECSIILTDTVGFVSDLPHKLISAFSATLEETAQADVLLHVVDAAAPNSGQQIEDVENVLQEIHAGDIPCIKVYNKTDLLPSEEQNTGIWRDAAGKIAAVRISVAENTGIDALREAIAESCAAAPNTDETEMPLEHHHHHH | soluble
MPFVVIITGIPGVGKSTITKLALQRTRAKFKLINFGDLMFEEALKLKLVKHRDEMRKLPLEVQRELQMNAAKKIAEMAKNYPILLDTHATIKTPHGYLLGLPYEVIKILNPNFIVIIEATPSEILGRRLRDLKRDRDVETEEQIQRHQDLNRAAAITYAMHSNALIKIIENHEDKGLEEAVNELVKILDLAVKEYA | soluble
LQASCSDDQEHRLGSLDFYTGVFALEKSRIAEISNRATLELQKMATSGEPMWLRSVETGREILNYDEYLKEFPQAQASSFPGRKTIEASRDAGIVFMDAHKLAQSFMDVGQWKETFACLISKAATVDVIRQGEGPSRIDGAIQLMFGEMQLLTPVVPTREVYFVRSCRQLSPEKWAIVDVSVSVEDSNTEKEASLLKCRKLPSGCIIEDTSNGHSKVTWVEHLDVSASTVQPLFRSLVNTGLAFGARHWVATLQLHCERLVFFMATNVPTKDSLGVTTLAGRKSVLKMAQRMTQSFYRAIAASSYHQWTKITTKTGQDMRVSSRKNV | soluble
MKKKLTGVALVLAAVSLMGIQPAGACTRAVYLGPDRMVVTGRTMDWKEDIMSNIYVFPRGMQRAGHNKEKTVNWTSKYGSVIATGYDIGTCDGMNEKGLVASLLFLPESVYSLPGDTRPAMGISIWTQYVLDNFATVREAVDEMKKETFRIDAPRMPNGGPESTLHMAITDETGNTAVIEYLDGKLSIHEGKEYQVMTNSPRYELQLAVNDYWKEVGGLQMLPGTNRSSDRFVRASFYIHAIPQTADAKIAVPSVLSVMRNVSVPFGINTPEKPHISSTRWRSVSDQKNKVYYFESTLTPNLFWLDLKKIDFSPKAGVKKLSLTKGEIYAGDAVKDLKDSQSFTFLFETPVM | soluble
SMTTLFSKIKEVTELAAVSGHEAPVRAYLREKLTPHVDEVVTDGLGGIFGIKHSEAVDAPRVLVASHMDEVGFMVSEIKPDGTFRVVEIGGWNPMVVSSQRFKLLTRDGHEIPVISGSVPPHLTRGKGGPTMPAIADIVFDGGFADKAEAESFGIRPGDTIVPDSSAILTANEKNIISKAWDNRYGVLMVSELAEALSGQKLGNELYLGSNVQEEVGLRGAHTSTTKFDPEVFLAVDCSPAGDVYGGQGKIGDGTLIRFYDPGHLLLPGMKDFLLTTAEEAGIKYQYYCGKGGTDAGAAHLKNGGVPSTTIGVCARYIHSHQTLYAMDDFLEAQAFLQALVKKLDRSTVDLIKHY | soluble
MGSDKIHHHHHHMQVPKVTLNNGVEMPILGYGVFQIPPEKTEECVYEAIKVGYRLIDTAASYMNEEGVGRAIKRAIDEGIVRREELFVTTKLWVSDVGYESTKKAFEKSLKKLQLEYIDLYLIHQPFGDVHCAWKAMEEMYKDGLVRAIGVSNFYPDRLMDLMVHHEIVPAVNQIEIHPFYQRQEEIEFMRNYNIQPEAWGPFAEGRKNIFQNGVLRSIAEKYGKTVAQVILRWLTQKGIVAIPKTVRRERMKENISIFDFELTQEDMEKIATLDEGQSAFFSHRDPEVVKWICSLKR | soluble
MGSDKIHHHHHHMKSKANQSQGLLLFRLSQHQIFALGTLKIRELVPYTPLSKIPQSHPTILGAATIRGHTIPVVDMAAAIGYRPVSDEERQHCYIIITDCQRMIIGFLVRAIDKIIECNWRDIEAPSANLGKNAFLTGVTRYDNQLVQLLDVELLLSKVFPDAPEANRAILTDVQREKLKPRRILLVDDSKVARKQLSDALDSINIPYFVTPDGREALSIMEQAAAEHHPIDILVSDIEMPGLDGYELAFEVRDNPLLANAYIILHTSLSSEISVSQAHQVGANEALTKFDAHELVEAMLRGAELAAKRAN | not soluble
MNSELKARYKVLGSEKEHTKSETLTETLIEVIVNGDVEPGSKISEPELARKYQVSRGPLREALMRLEGLGLIERIPHVGARVTTFSPAKLIELYSVREALEGMAARLAARHITQEELLSLEMLLSTHSKHIDQVEGASYFHQHGDFDFHYRIIQASRNSKLISLLCDELYHLLRMYRYQSPRAQSRPNEALTEHKFILEAIRNRDEELAEMLMRRHISGSRKLIQSQIIHTESLDKD | not soluble
MASTSTGLPPNWTIRVSRSHNKEYFLNQSTNESSWDPPYGTDKEVLNAYIAKFKNNGYKPLVNEDGQVRVSHLLIKNNQSRKPKSWKSPDGISRTRDESIQILKKHLERILSGEVKLSELANTESDCSSHDRGGDLGFFSKGQMQPPFEEAAFNLHVGEVSNIIETNSGVHILQRTG | soluble
MTKKDEVKELEVKNNIPEAEKKPFNKFGKQEKHTVEDVEYTFQFPGTRAAQAILDNSKGPSNTFSDVAYHSQLMDSVIVTPKLNWDYWDEHEGYREVMALADNFLGRMLN | not soluble
MPSSVELSVQAGLEHFDAAQWDALAGPQPFVRHAFLRALHDTGCASPGTGWTPCFLALRRAGLLAGAVPLYAKSHSRGEYVFDYAWADAYARNGLPYYPKLLSAVPFTPVGGARLLAHTHADRLLLARGLIQLARQFEVSSLHVLFPSDDDLLALREAGYLIRAGVQFHWRNAGYAGFDDFLAAFSHDKRKKIRQDRKKVAAERVSFRWLRGADIDAAALDFFYQCYRHTYLAHGNPPYLNLEFFRQLHAEMPDALVLILAEQDGQPVAAALNLQADGVLYGRYWGARRYIPGLHFETCYLQSIEYCIAHGQASFEGGAQGEHKMARGLLPTPTWSAHWIADTRFAAAIDDFLGHETHAIDEYRDELATHSPFRKT | not soluble
MVGCLVVLLGAARKPARIFNLTPASASRYDSIHLCSLRTSLSCH | not soluble
AEPQPPSGGLTDEAALSCCSDADPSTKDFLLQETMLRVKDPKKSLDFYTRVLGMTLIQKCDFPIMKFSLYFLAYEDKNDIPKEKDEKIAWALSRKATLELTHNWGTEDDETQSYHNGNSDPRGFGHIGIAVPDVYSACKRFEELGVKFVKKPDDGKMKGLAFIQDPDGYWIQILNPNKMATLM | soluble
GPDFNWTSVLNLTHNRNKIVALDGDIKQSVEGSWFIHKIGLPYNSFYVKEFAGVDPSTGKGLYYLNTQDEKGNYNREMTDDASKAQAIPYKSADPKISGGFTNILSYKWFDLGLTFTYSLGGYSFDKTGTLIETDGSKEKSYNLPVYALDRWQKPGDRTDVPRFVLEQGAGPQNSSRYIHSTDHIRLKNLTLGFTLPGRWVQKALIENARVYFSGSNLLTWAKWKQYDPEVPVNGEVFCEAPPMRTFNFGVEITF | not soluble
MAHHHHHHMCVHTFVRMNAWMCSSLSITQQNTITPPHYMQNSAFRVASLLQSRHRRGICDEGESTLAKLTQGVEMFLQHAADVPPVMLEKLSEVGDADTSTNGCSERHDDVDESMDEAEVHLSVVAGVLEPREMPKNVSTMSGLLLPTADNRKALERQKVEEAQAMLNLLAALTANNKKENTIGALTGTSEAEVDDESTTTSDESVVICYADELESDTTSSCSEADAQQEPQRSARIIELN | not soluble
MSLSIPLILASQSRPRRDVLFSAGICPTIRVSHVDEPAALEREAAALGVTVNDLSVEQRVMILATAKAEAVHQAYRNIADTAAHARGERVVGFPLRAADDRDASSAGTAARTDSAQSADETKTRDFSGIAIPTVAEPIADFVDGRPSLTRSKAGPLILGCDSMFLLDGECYGKPHSEEVARERLRAMRGATGELWTGHCLIDFASGRMVRGASKATLHFCEYSDLDIERYIATGEPLEVAGSFTLEGFGGAFIDSIEGDPHGIIGLSLPLARRLAAQLGVEWTDLWNVTRSDLAPDAEYDAKTGAAKPLPPKENVHQPGDGWVDCACGRKHWGTNGASGVLLARRSETTGEVTHVVMQHRAVWSAEGGTWGIPGGATADGESPIEGALRESYEEANITPEDIDVVGSYCEDHGPWSYTTVFAFEKPGHRIEPKANDDESMEIEWVPVDDVPNRKLLTAMRTDWPNFAARLRALAAVREGHHHHHH | soluble
MTEPIFMVGARGCGMTTVGRELARALGYEFVDTDIFMQHTSGMTVADVVAAEGWPGFRRRESEALQAVATPNRVVATGGGMVLLEQNRQFMRAHGTVVYLFAPAEELALRLQASLQAHQRPTLTGRPIAEEMEAVLREREALYQDVAHYVVDATQPPAAIVCELMQTMRLPAA | soluble
MSEEPVAAPGTISHPVYKLKRNWTWWYLNDERNKSWEERLKNVKTFSSVGEFWALHDSIKPPSGLNPPSDYNVFRDGIEPMWEVPQNQNGGRWLITIEKGRTPEIMDTIWTEILMAMIGEQFSDDIESLCGIVCNVRGKGSKISVWTTNSADDGANLRIGGVLKQVLNNASMIHQRPLYDVLRYEDHESCQKKTSSGVKAKHAIYAVEPREEKAPVPVSTETPATPAT | not soluble
